# Results reported in article PMC9482650, “Quantitative fragmentomics allow affinity mapping of interactomes” (Nature Communications, 2022).
# T1: APBA3_1, O96018
# T1 sequence (O96018 389-490, limits assumed, looked up): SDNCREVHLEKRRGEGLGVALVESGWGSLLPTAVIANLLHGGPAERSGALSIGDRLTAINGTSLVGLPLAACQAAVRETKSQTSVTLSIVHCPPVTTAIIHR
# T2: CARD11, Q9BXL7
# T2 sequence (Q9BXL7 662-765, limits assumed, looked up): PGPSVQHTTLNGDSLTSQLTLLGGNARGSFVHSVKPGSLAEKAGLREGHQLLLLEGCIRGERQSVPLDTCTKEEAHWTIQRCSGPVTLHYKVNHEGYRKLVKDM
# T3: GRIP1_7, Q9Y3R0
# T3 sequence (Q9Y3R0 999-1096, limits assumed, looked up): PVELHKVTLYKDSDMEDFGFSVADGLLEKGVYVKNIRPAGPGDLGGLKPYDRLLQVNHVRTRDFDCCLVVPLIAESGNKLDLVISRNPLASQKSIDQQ
# T4: HTRA3, P83110
# T4 sequence (P83110 354-453, limits assumed, looked up): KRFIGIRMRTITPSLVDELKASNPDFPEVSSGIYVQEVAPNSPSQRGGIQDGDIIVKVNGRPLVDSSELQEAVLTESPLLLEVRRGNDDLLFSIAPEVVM
# T5: LIN7C, Q9NUP9
# T5 sequence (Q9NUP9 88-185, limits assumed, looked up): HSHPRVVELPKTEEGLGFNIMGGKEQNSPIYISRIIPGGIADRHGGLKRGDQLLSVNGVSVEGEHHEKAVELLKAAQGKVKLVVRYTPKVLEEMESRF
# T6: MPDZ_12, O75970
# T6 sequence (O75970 1857-1958, limits assumed, looked up): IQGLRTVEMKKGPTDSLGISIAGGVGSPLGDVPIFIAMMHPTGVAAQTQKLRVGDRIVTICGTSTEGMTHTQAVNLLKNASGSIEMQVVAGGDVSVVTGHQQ
# T7: SNTA1, Q13424
# T7 sequence (Q13424 82-180, limits assumed, looked up): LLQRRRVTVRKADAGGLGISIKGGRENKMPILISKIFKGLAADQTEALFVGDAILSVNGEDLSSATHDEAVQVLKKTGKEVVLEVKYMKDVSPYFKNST
# T8: SNTG2, Q9NY99
# T8 sequence (Q9NY99 68-166, limits assumed, looked up): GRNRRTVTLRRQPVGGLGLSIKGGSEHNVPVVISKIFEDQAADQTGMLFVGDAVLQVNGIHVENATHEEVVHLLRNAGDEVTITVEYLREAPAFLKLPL
# T9: SYNJ2BP, P57105
# T9 sequence (P57105 8-110, limits assumed, looked up): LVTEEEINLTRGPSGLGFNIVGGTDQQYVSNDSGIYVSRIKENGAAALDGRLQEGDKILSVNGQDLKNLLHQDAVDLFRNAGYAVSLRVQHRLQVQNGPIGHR
# T10: TIAM2, Q8IVF5
# T10 sequence (Q8IVF5 885-986, limits assumed, looked up): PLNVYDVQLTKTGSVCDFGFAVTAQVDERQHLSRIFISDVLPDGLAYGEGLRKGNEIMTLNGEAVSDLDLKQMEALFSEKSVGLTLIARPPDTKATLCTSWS
# How the values were obtained:
# Assay in all cases: holdup assay
# Parameters in all cases: key: below the threshold = too weak to quantify, mostly under pKd 3.1 to 4
# AHNAK1, Q09666 = target: AHNAK1, Q09666
# AHNAK1, Q09666, sequence (Q09666 4-100): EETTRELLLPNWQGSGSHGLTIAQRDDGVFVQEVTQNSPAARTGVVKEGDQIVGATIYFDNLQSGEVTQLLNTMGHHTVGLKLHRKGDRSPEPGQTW
# APBA3_1, O96018 = target: T1, APBA3_1, O96018
# CARD11, Q9BXL7 = target: T2, CARD11, Q9BXL7
# DLG1_3, Q12959 = target: DLG1_3, Q12959
# DLG1_3, Q12959, sequence (Q12959 457-571): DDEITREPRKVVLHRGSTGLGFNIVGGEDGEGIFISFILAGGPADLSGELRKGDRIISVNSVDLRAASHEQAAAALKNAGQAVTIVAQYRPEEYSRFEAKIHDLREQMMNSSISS
# DLG2_2, Q15700 = target: DLG2_2, Q15700
# DLG2_2, Q15700, sequence (Q15700 189-283): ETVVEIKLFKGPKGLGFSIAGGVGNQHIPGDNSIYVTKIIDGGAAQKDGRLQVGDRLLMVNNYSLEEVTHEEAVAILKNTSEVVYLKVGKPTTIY
# DLG4_3, P78352 = target: DLG4_3, P78352
# DLG4_3, P78352, sequence (P78352 306-403): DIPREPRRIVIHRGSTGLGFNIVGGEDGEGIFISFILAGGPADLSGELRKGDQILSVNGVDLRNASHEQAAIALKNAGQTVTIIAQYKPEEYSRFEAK
# FRMPD2_2, Q68DX3 = target: FRMPD2_2, Q68DX3
# FRMPD2_2, Q68DX3, sequence (Q68DX3 944-1038): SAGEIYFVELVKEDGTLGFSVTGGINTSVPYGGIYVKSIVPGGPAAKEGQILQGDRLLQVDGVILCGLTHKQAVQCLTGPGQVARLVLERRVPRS
# GORASP1, Q9BQQ3 = target: GORASP1, Q9BQQ3
# GORASP1, Q9BQQ3, sequence (Q9BQQ3 1-208): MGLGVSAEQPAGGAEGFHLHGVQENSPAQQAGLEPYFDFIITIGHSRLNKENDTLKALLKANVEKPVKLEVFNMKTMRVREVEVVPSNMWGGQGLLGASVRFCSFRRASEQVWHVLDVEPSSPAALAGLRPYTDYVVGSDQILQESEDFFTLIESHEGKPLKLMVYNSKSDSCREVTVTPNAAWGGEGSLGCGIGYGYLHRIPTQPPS
# GORASP2, Q9H8Y8 = target: GORASP2, Q9H8Y8
# GRID2IP_1, A4D2P6 = target: GRID2IP_1, A4D2P6
# GRID2IP_1, A4D2P6, sequence (A4D2P6 1-87): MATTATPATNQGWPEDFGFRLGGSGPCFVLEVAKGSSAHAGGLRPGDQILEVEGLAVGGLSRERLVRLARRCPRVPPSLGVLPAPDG
# GRID2IP_2, A4D2P6 = target: GRID2IP_2, A4D2P6
# GRID2IP_2, A4D2P6, sequence (A4D2P6 272-370): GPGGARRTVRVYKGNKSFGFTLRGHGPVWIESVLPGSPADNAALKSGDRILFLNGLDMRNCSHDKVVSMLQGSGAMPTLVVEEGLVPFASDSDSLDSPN
# GRIP1_7, Q9Y3R0 = target: T3, GRIP1_7, Q9Y3R0
# GRIP2_5, Q9C0E4 = target: GRIP2_5, Q9C0E4
# GRIP2_5, Q9C0E4, sequence (Q9C0E4 544-642): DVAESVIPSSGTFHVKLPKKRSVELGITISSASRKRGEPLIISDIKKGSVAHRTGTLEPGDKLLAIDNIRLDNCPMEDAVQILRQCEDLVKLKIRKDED
# GRIP2_7, Q9C0E4 = target: GRIP2_7, Q9C0E4
# GRIP2_7, Q9C0E4, sequence (Q9C0E4 934-1023): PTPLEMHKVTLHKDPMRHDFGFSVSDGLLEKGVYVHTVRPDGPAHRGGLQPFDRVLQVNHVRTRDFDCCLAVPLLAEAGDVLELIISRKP
# HTRA2, O43464 = target: HTRA2, O43464
# HTRA2, O43464, sequence (O43464 355-458): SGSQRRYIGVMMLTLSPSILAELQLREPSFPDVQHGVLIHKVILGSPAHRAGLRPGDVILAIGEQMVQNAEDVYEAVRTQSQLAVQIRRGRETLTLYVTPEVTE
# HTRA3, P83110 = target: T4, HTRA3, P83110
# LDB3, O75112 = target: LDB3, O75112
# LDB3, O75112, sequence (O75112 1-94): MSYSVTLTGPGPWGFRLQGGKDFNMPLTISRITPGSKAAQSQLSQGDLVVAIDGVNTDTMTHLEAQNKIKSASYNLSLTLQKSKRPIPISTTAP
# LIN7C, Q9NUP9 = target: T5, LIN7C, Q9NUP9
# MAGI2_2, Q86UL8 = target: MAGI2_2, Q86UL8
# MAGI2_2, Q86UL8, sequence (Q86UL8 410-522): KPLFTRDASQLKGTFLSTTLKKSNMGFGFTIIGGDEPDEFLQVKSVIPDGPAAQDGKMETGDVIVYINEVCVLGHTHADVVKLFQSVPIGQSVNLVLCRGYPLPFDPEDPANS
# MAGI2_5, Q86UL8 = target: MAGI2_5, Q86UL8
# MAGI2_5, Q86UL8, sequence (Q86UL8 915-1017): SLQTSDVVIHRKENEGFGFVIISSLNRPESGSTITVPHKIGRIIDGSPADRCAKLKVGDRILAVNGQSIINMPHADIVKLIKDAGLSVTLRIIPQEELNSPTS
# MAST1, Q9Y2H9 = target: MAST1, Q9Y2H9
# MAST1, Q9Y2H9, sequence (Q9Y2H9 962-1065): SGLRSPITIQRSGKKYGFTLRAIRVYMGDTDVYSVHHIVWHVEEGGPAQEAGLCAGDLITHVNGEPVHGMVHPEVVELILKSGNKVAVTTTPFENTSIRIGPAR
# MPDZ_12, O75970 = target: T6, MPDZ_12, O75970
# NHERF2_2, Q15599 = target: NHERF2_2, Q15599
# NHERF2_2, Q15599, sequence (Q15599 142-238): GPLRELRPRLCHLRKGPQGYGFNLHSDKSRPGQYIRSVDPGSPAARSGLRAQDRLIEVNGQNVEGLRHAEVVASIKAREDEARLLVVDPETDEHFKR
# SCRIB_1, Q14160 = target: SCRIB_1, Q14160
# SCRIB_1, Q14160, sequence (Q14160 718-814): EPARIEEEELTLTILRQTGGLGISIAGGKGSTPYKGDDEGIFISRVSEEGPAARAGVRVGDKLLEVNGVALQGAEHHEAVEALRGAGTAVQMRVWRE
# SNTA1, Q13424 = target: T7, SNTA1, Q13424
# SNTG2, Q9NY99 = target: T8, SNTG2, Q9NY99
# SYNJ2BP, P57105 = target: T9, SYNJ2BP, P57105
# TIAM2, Q8IVF5 = target: T10, TIAM2, Q8IVF5
# [1] = plain residues with an end cap or a label only (N-terminal biotin on a linker: none)
# [2] = plain residues with an end cap or a label only (N-terminal biotin on a linker: gsgsgs; C-terminal amide)
binder,measurement,setting,value
"DSKPPLPPDEWV [MERS-E, K9N5R3]",pKd,"AHNAK1, Q09666; [1]",below the threshold
same,pKd,"APBA3_1, O96018; [1]",3.65
same,pKd,"CARD11, Q9BXL7; [1]",below the threshold
same,pKd,"DLG1_3, Q12959; [1]",3.5
same,pKd,"DLG2_2, Q15700; [1]",below the threshold
same,pKd,"DLG4_3, P78352; [1]",3.64
same,pKd,"FRMPD2_2, Q68DX3; [1]",below the threshold
same,pKd,"GORASP1, Q9BQQ3; [1]",4.29
same,pKd,"GORASP2, Q9H8Y8; [1]",4.57
same,pKd,"GRID2IP_1, A4D2P6; [1]",3.57
same,pKd,"GRID2IP_2, A4D2P6; [1]",3.53
same,pKd,"GRIP1_7, Q9Y3R0; [1]",3.88
same,pKd,"GRIP2_5, Q9C0E4; [1]",below the threshold
same,pKd,"GRIP2_7, Q9C0E4; [1]",3.86
same,pKd,"HTRA2, O43464; [1]",4.2
same,pKd,"HTRA3, P83110; [1]",5.66
same,pKd,"LDB3, O75112; [1]",below the threshold
same,pKd,"LIN7C, Q9NUP9; [1]",below the threshold
same,pKd,"MAGI2_2, Q86UL8; [1]",below the threshold
same,pKd,"MAGI2_5, Q86UL8; [1]",below the threshold
same,pKd,"MAST1, Q9Y2H9; [1]",3.91
same,pKd,"MPDZ_12, O75970; [1]",below the threshold
same,pKd,"NHERF2_2, Q15599; [1]",below the threshold
same,pKd,"SCRIB_1, Q14160; [1]",4.52
same,pKd,"SNTA1, Q13424; [1]",below the threshold
same,pKd,"SNTG2, Q9NY99; [1]",3.59
same,pKd,"SYNJ2BP, P57105; [1]",3.73
same,pKd,"TIAM2, Q8IVF5; [1]",below the threshold
"ELIQDTSTSFSTTREW [ARAP3_int, Q8WWN8]",pKd,"AHNAK1, Q09666; [2]",below the threshold
same,pKd,"APBA3_1, O96018; [2]",below the threshold
same,pKd,"CARD11, Q9BXL7; [2]",below the threshold
same,pKd,"DLG1_3, Q12959; [2]",below the threshold
same,pKd,"DLG2_2, Q15700; [2]",below the threshold
same,pKd,"DLG4_3, P78352; [2]",below the threshold
same,pKd,"FRMPD2_2, Q68DX3; [2]",below the threshold
same,pKd,"GORASP1, Q9BQQ3; [2]",below the threshold
same,pKd,"GORASP2, Q9H8Y8; [2]",below the threshold
same,pKd,"GRID2IP_1, A4D2P6; [2]",below the threshold
same,pKd,"GRID2IP_2, A4D2P6; [2]",3.89
same,pKd,"GRIP1_7, Q9Y3R0; [2]",below the threshold
same,pKd,"GRIP2_5, Q9C0E4; [2]",below the threshold
same,pKd,"GRIP2_7, Q9C0E4; [2]",below the threshold
same,pKd,"HTRA2, O43464; [2]",below the threshold
same,pKd,"HTRA3, P83110; [2]",below the threshold
same,pKd,"LDB3, O75112; [2]",below the threshold
same,pKd,"LIN7C, Q9NUP9; [2]",4.11
same,pKd,"MAGI2_2, Q86UL8; [2]",below the threshold
same,pKd,"MAGI2_5, Q86UL8; [2]",below the threshold
same,pKd,"MAST1, Q9Y2H9; [2]",3.49
same,pKd,"MPDZ_12, O75970; [2]",below the threshold
same,pKd,"NHERF2_2, Q15599; [2]",below the threshold
same,pKd,"SCRIB_1, Q14160; [2]",below the threshold
same,pKd,"SNTA1, Q13424; [2]",below the threshold
same,pKd,"SNTG2, Q9NY99; [2]",below the threshold
same,pKd,"SYNJ2BP, P57105; [2]",below the threshold
same,pKd,"TIAM2, Q8IVF5; [2]",3.97
